In article PMC6701862 (Science (New York, N.Y.), 2019):

Molecular target: GluA2 subunit of native AMPA receptors (nAMPAR) from rat brain (rat (endogenous in rat brain), UniProt P19491)
Test: cryo-EM structure

Sequence of GluA2 subunit of native AMPA receptors (nAMPAR) from rat brain (P19491 22-883): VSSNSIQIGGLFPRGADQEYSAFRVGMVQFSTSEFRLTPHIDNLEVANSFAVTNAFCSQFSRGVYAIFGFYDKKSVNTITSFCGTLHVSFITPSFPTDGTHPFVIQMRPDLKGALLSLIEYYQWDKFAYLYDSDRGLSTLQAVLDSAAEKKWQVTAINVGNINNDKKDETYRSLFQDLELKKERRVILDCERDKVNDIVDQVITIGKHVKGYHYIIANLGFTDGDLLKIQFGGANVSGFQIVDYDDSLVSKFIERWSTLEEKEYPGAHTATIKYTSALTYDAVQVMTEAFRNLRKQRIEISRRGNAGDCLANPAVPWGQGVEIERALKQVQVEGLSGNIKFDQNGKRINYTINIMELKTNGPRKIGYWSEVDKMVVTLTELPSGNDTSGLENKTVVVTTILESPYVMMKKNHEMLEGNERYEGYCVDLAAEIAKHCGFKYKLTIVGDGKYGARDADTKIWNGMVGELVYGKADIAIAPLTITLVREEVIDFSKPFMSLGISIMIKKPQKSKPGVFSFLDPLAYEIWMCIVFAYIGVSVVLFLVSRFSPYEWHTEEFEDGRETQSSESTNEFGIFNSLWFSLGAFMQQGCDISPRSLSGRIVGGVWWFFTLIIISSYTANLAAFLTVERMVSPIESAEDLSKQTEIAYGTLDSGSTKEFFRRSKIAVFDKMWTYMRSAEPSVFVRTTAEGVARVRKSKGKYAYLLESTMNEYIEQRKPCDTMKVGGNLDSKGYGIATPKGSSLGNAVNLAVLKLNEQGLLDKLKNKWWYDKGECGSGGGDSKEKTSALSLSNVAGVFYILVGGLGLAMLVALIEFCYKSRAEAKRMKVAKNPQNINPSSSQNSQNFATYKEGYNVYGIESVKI

B1: 15F1 Fab, anti-GluA2 (Fab, V domains shown)
VH: QAQLKESGPGLVAPSQSLSITCTVSGFSLTNYGVHWVRQPPGKGLEWLGVIWAGGSTNYNSALMSRVSISKDNSKSQVFLKMNSLQTDDTVMYYCAREDYDYDWHFDVWGAGTTVTVSS
VL: EIQMTQTTSSLSASLGDRVTISCRASQDISNYLSWYQQKPDGTVKLLIYYTSRLHSGVPSRFSGSGSGIDYSLTINNLEQEDFATYFCQQGNTLPLTFGAGTKLELK
B1: binds.
